How the values were obtained:
Experiment in all cases: IEDB peptide-MHC binding, purified MHC/competitive/fluorescence; filed as Kd, often an IC50 or EC50 that approximates it; ≥ and ≤ were set here for values at or beyond the usual limits of such assays
Conditions in all cases: source organism: human gammaherpesvirus 4
HLA-B*27:20 = molecular target: HLA-B*27:20
HLA-B*45:06 = molecular target: HLA-B*45:06
HLA-B*15:42 = molecular target: HLA-B*15:42
HLA-B*83:01 = molecular target: HLA-B*83:01
HLA-B*40:13 = molecular target: HLA-B*40:13

AQRAAGPSV
Kd (HLA-B*27:20): 0.7 nM
Kd (HLA-B*45:06): 9.2 nM
Kd (HLA-B*15:42): 1190 nM
Kd (HLA-B*83:01): ≥ 5000 nM
Kd (HLA-B*40:13): 212 nM

— the Immune Epitope Database (IEDB)
